# Experimental data taken from patent US20020161201A1.
# Target: bovine submaxillary mucin type I (bovine)
# Assay: competition ELISA with biotinylated CC49 SCA, mucin
substance,measurement,value
biotinylated CC49 SCA (scFv),Kd,6.2 nM
non-PEGylated CC49 SCA (Native-CC49) (scFv),Kd,3.6 nM
